According to IntAct's records for PubMed 22493017:

B1: Biopolymer transport protein ExbD (Escherichia coli (strain K12)), P0ABV2 (parent)
chain: MAMHLNENLDDNGEMHDINVTPFIDVMLVLLIIFMVAAPLATVDVKVNLPASTSTPQPRPEKPVYLSVKADNSMFIGNDPVTDETMITALNALTEGKKDTTIFFRADKTVDYETLMKVMDTLHQAGYLKIGLVGEETAKAK
B2: Protein TonB (Escherichia coli (strain K12)), P02929 (parent)
chain: MTLDLPRRFPWPTLLSVCIHGAVVAGLLYTSVHQVIELPAPAQPISVTMVTPADLEPPQAVQPPPEPVVEPEPEPEPIPEPPKEAPVVIEKPKPKPKPKPKPVKKVQEQPKRDVKPVESRPASPFENTAPARLTSSTATAATSKPVTSVASGPRALSRNQPQYPARAQALRIEGQVKVKFDVTPDGRVDNVQILSAKPANMFEREVKNAMRRWRYEPGKPGSGIVVNILFKINGTTEIQ
partner: B1 chain

Variants of: B1
Conditions: with tonb_ecoli tonB, P02929

Q: Which “effect of a mutation on the interaction” value does the source give for MAMHLNENLDDNGEMHDINVTPFIDVMLVLLIIFMVAAPLATVDVKVNLPASTSTPQPRPEKPVYLSVKADNSMFIGNDPVTDETMITALNALTEGKKDTTIFFRADKCVDYETLMKVMDTLHQAGYLKIGLVGEETAKAK [T109C] here?
A: increasing interaction

Q: With MAMHLNENLDDNGEMHDINVTPFINVMLVLLIIFMVAAPLATVDVKVNLPASTSTPQPRPEKPVYLSVKADNSMFIGNDPVTDETMITALNALTEGKKDTTIFFRADKTVDYETLMKVMDTLHQAGYLKIGLVGEETAKAK [D25N] as the variant, how does the “effect of a mutation on the interaction” value read?
A: decreasing interaction

Q: Which “effect of a mutation on the interaction” value does the source give for MAMHLNENLDDNGEMHDINVTPFIDVMLVLLIIFMVAAPLATVDVKVNLPASTSTPQPRPEKPVYLSVKADNSMFIGNDPVTDETMITALNCLTEGKKDTTIFFRADKTVDYETLMKVMDTLHQAGYLKIGLVGEETAKAK [A92C] here?
A: increasing interaction

Q: With MAMHLNENLDDNGEMHDINVTPFIDVMLVLLIIFMVAAPLATVDVKVNLPASTSTPQPRPEKPVYLSVKADNSMFIGNDPVTDETMITALNALTEGCKDTTIFFRADKTVDYETLMKVMDTLHQAGYLKIGLVGEETAKAK [K97C] as the variant, how does the “effect of a mutation on the interaction” value read?
A: increasing interaction

Variants of: B2
Conditions: with exbd_ecoli exbD, P0ABV2

Q: Which “effect of a mutation on the interaction” value does the source give for N200C here?
A: increasing interaction

Q: How did the “effect of a mutation on the interaction” value turn out when A150C was run?
A: increasing interaction

Q: With R166C as the variant, how does the “effect of a mutation on the interaction” value read?
A: increasing interaction

Q: P164C was tested. Which “effect of a mutation on the interaction” value did it give?
A: increasing interaction

Q: How did the “effect of a mutation on the interaction” value turn out when R204C was run?
A: increasing interaction

Q: How did the “effect of a mutation on the interaction” value turn out when L170C was run?
A: increasing interaction

Q: For R212C, which “effect of a mutation on the interaction” value is on record?
A: increasing interaction

Q: How did the “effect of a mutation on the interaction” value turn out when G152C was run?
A: increasing interaction

Q: For Q168C, which “effect of a mutation on the interaction” value is on record?
A: increasing interaction

Q: With F202C as the variant, how does the “effect of a mutation on the interaction” value read?
A: increasing interaction
